According to patent US20230079150A1, “METHODS FOR PREVENTION OR TREATMENT OF VIRUS-INDUCED ORGAN INJURY OR FAILURE WITH IL-22 DIMER” (priority 2020, published 2023):
Where two headings read alike, the source gives them in different places.

Key:
[1] = tested on: H1N1 influenza (A/PR8 strain); assay type: in vivo, C57BL/6 mice
[2] = tested on: H1N1 influenza (A/PR8 strain); assay type: in vivo, C57BL/6 mice; details: both aged and young H1N1-infected mice
[3] = tested on: H1N1 influenza (A/PR8 strain)
C57BL/6 mice = experiment: LPS acute lung injury mouse model: lung RNA-seq pathway analysis; assay type: in vivo; details: high-dose LPS injury; lung tissue
Experimental: After approval from the Tulane University, Institutional Animal Care and Use Committee (protocol ID 607), equal numbers of male and female, 6-8 week old C57BL/6 mice (Charles River Laboratories, Cambridge, Mass.) were given acute lung injury (ALI) via intra-tracheally administered LPS. After obtaining appropriate depth of anesthesia using isoflurane, the high-dose LPS group (HDG) received 100 μg of LPS administered intra-tracheally. Approximately 30 minutes after LPS administration, 4 μg of F-652 was administered via tail vein injection (n=11), then compared to animals receiving sham injection (n=8) with phosphate-buffered saline (PBS). […]
Lung tissue was homogenized in Trizol buffer (Life Technologies) and total RNA extraction was performed according to Trizol manufacturer's instructions. […] RNA quantity and quality were assessed using NanoDrop and Agilent RNA ScreenTape with Agilent 4150 TapeStation system. SMART-Seq Stranded total RNA sample prep kit (Takara Bio USA, Inc.) was used for library preparation as specified in the user manual, followed by Agilent DNA 1000 kit validation with Agilent 4150 TapeStation system and quantification by Qubit 2.0 fluorometer. […] Cluster generation and 1×75 bp single read single-indexed sequencing was performed by High-Output kit v2.5 (75 cycles) on Illumina NextSeq 550. Raw reads were processed and mapped. […]

[4] = tested on: H1N1 influenza (A/PR8 strain); assay type: in vivo, C57BL/6 mice; details: aged hosts; treated for 3 weeks
STAT3 = details: F-652 alone compared to control HUVECs
Experimental: To investigate the effects of F-652 on EGX, cultured HUVECs were exposed to either untreated media, 1 μg/mL of LPS, 1 μg/mL of LPS and 0.375 μg/mL of F-652, or 0.375 μg/mL of F-652 alone, for a total of 24 hours.
HUVECs were lysed in lysis buffer (50 mM Tris-HCl pH 7.5, 150 mM NaCl, 0.5 M EDTA, 1% Triton X-100, and Halt™ protease inhibitor cocktail). Proteins were quantified using Bio-Rad protein quantification assay (Bio-Rad Laboratories), and 20-50 μg of protein was separated by SDS-polyacrylamide gel electrophoresis (SDS-PAGE) on a 4-12% gradient acrylamide gel run at 100 V. Proteins were then transferred to 0.45 m PVDF membrane at 30 V for 2 hours. Membranes were blocked in Tris Buffered Saline (TBS: 137 mM NaCl, 20 mM Tris Base), 0.1% Tween 20, and 5% bovine serum albumin (blocking solution) for 1 hour, followed by overnight incubation with primary antibody diluted in TBS, 0.1% Tween 20, and 3% BSA, and 1 hour incubation with horseradish peroxidase-conjugated secondary antibody diluted at 1:5,000. […] Immunoreactive protein was detected using ECL (GE Healthcare) imaged on a Bio-Rad ChemiDoc™ MP Imaging System.

B1: F-652: recombinant IL-22 dimer consisting of two monomeric subunits each comprising a sequence shown in SEQ ID NO: 24 (protein)
chain 1: APISSHCRLDKSNFQQPYITNRTFMLAKEASLADNNTDVRLIGEKLFHGVSMSERCYLMKQVLNFTLEEVLFPQSDRFQPYMQEVVPFLARLSNRLSTCHIEGDDLHIQRNVQKLKDTVKKLGESGEIKAIGELDLLFMSLRNACIGSGGGSGGGGSGGGGSVECPPCPAPPVAGPSVFLFPPKPKDTLMISRTPEVTCVVVDVSHEDPEVQFNWYVDGVEVHNAKTKPREEQFNSTFRVVSVLTVVHQDWLNGKEYKCKVSNKGLPASIEKTISKTKGQPREPQVYTLPPSREEMTKNQVSLTCLVKGFYPSDIAVEWESNGQPENNYKTTPPMLDSDGSFFLYSKLTVDKSRWQQGNVFSCSVMHEALHNHYTQKSLSLSPGK
chain 2: APISSHCRLDKSNFQQPYITNRTFMLAKEASLADNNTDVRLIGEKLFHGVSMSERCYLMKQVLNFTLEEVLFPQSDRFQPYMQEVVPFLARLSNRLSTCHIEGDDLHIQRNVQKLKDTVKKLGESGEIKAIGELDLLFMSLRNACIGSGGGSGGGGSGGGGSVECPPCPAPPVAGPSVFLFPPKPKDTLMISRTPEVTCVVVDVSHEDPEVQFNWYVDGVEVHNAKTKPREEQFNSTFRVVSVLTVVHQDWLNGKEYKCKVSNKGLPASIEKTISKTKGQPREPQVYTLPPSREEMTKNQVSLTCLVKGFYPSDIAVEWESNGQPENNYKTTPPMLDSDGSFFLYSKLTVDKSRWQQGNVFSCSVMHEALHNHYTQKSLSLSPGK
modifications: homodimer
For B1, the “influenza specific CD8+ T cells (Total CD8+) compared to PBS control” value ([1]; aged mice, 3-week treatment) was “significantly decreased”, the “lung infiltrating neutrophils and inflammatory monocytes compared to 3-week F-652 treatment” value ([1]; aged mice, 6-week F-652 treatment) was “even more decrease” and the “lung infiltrating neutrophils and inflammatory monocytes compared to PBS control” value ([1]; aged mice, F-652 200 μg/kg weekly for 3 weeks, Days 62-65 post-infection) was “decreased significantly”. The “CD8+ T cells expressing CD69+ or CD69+/CD103+ compared to PBS control” value ([1]; both young and aged hosts) was “decreased significantly”, the “total number of CD8+ T cells” value ([1]; young mice, 3-week treatment) was “no significant difference” and the “lung infiltrating neutrophils or inflammatory monocytes, PBS vs F-652” value ([1]; young mice, treated for 3 weeks or 6 weeks) was “no significant difference”. For the same molecule, the “hydroxyproline content of right lung lobes compared to PBS control” value [2] was “significantly reduced”, the “mice lost during the treatment phase” value ([3]; aged mice, Days 21-64 post-infection, F-652 200 μg/kg once weekly for 3 weeks, no PBS treated mice lost) was 3 mice and the “mice lost during the treatment phase” value ([3]; aged mice, F-652 200 μg/kg once weekly, 6-week treatment group) was 2 mice. For the same molecule, the “mice lost during the treatment phase” value ([3]; young groups, F-652 200 μg/kg once weekly) was “no mice were lost”, the “body weight, F-652 vs PBS treatment groups” value ([3]; young or aged mice, Days 21-64 post-infection) was “no notable differences” and the “Macrophage Inflammatory Protein-1β (CCL4) expression (RNA-seq)” value (C57BL/6 mice) was “decrease”. For the same molecule, the “Tnc, COL1a1, Col6a3 and Col1a2 expression (RNA-seq)” value (C57BL/6 mice) was “increased”, the “lung histology (H&E, Masson's Trichrome, Sirius Red, PAS)” value [4] was “ameliorates much of the H1N1-induced pathology” and the “ratio of phosphorylated STAT3 to total STAT3” value (STAT3) was “significantly higher”.
